From patent US20050079613 come the findings set out here.

This data set has as its system three human E2 enzymes UbCH2, UbCH3 and UbCH5a (at least one of these three enzymes).

For the substance “GST fusion of the MARCH-VIII RING-CH domain”, the “formation of high-molecular weight ubiquitin complexes in vitro (anti-ubiquitin blot)” value is “The RiNG-CH-GST fusion proteins of all four MARCH-proteins tested were able to catalyze the formation of high-molecular weight molecular ubiquitin complexes in the presence of at least one of these three enzymes”.
